For this assay, the target named is T1, human MICB expressed on cells (TRAMP-MICB) (human, UniProt Q29980 23-383).
T1 construct: also called TC2 derivative TRAMP-MICB
T1 sequence: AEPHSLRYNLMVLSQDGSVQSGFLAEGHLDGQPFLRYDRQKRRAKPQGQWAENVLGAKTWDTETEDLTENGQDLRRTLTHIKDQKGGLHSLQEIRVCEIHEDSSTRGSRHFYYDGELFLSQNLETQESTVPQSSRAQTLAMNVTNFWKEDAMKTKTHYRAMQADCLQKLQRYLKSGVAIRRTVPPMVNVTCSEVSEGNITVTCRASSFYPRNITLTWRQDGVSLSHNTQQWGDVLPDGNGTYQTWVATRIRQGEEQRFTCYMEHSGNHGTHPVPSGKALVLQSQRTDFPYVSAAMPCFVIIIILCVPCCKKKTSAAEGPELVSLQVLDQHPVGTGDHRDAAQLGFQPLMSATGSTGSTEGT
Briefly: flow cytometry on TRAMP-MICB cells, 2 ug/ml antibody, PE goat anti-mouse IgG.

Experimental: Cells were analyzed with BD FACSscan. Data were analyzed with CellQuest software.

B1: monoclonal antibody P2B10G5 (antibody, V domains shown)
VH: EVQLEESGPGLVKPSQSLSLTCTVTGYSITSDYAWNWIRQFPGNKLEWMGYISYSGSTNYNPSLKSRISITRDTSKNQFFLQLNSVITEDTATYYCARGGTYFDYWGQGTTLTVSS
VL: DIVLTQTTSYLSVSLGGRVTIACKASAHINNWLAWYQQKPGNAPRLLISDATSLETGVPSRFSGSGSGKDYTLSITSLQTEDVATYYCQHYWSTPWTFGGGTKLEIKR
notes: Mouse hybridoma antibody, IgG1 kappa, raised against recombinant soluble MIC; also called mAb B10G5; anti-sMIC
For the molecule B1, the binding result is recorded as “binds”.

(Values after patent US20180016339A1 (University of Washington, published 2018).)
